{"source": "paper PMC3964601", "about": "(Biochemistry, 2012)", "binders": {"B1": {"name": "Pyrococcus furiosus RNase P protein RPP29 (natural protein)", "chain": "MWRNSEERENRTSGRSQGSYQEIIGRTWIFRGAHRGRVNKKNIVWHELIGLKVRVVNSTHPGYVGIEGYVIDETRNMLVIAGENKVWKVPKDVCIFEFETWDGTKIKISGEKLVGRPEMRLKKRWRK"}, "B2": {"name": "Pyrococcus furiosus RNase P protein RPP21 (natural protein)", "chain": "MAKYNEKKEKKRIAKERIDILFSLAERVFPYSPELAKRYVELALLVQQKAKVKIPRKWKRRYCKKCHAFLVPGINARVRLRQKRMPHIVVKCLECGHIMRYPYIKEIKKRRKEKMEY"}}, "test_in_all_cases": "ITC", "key": {"[1]": {"molecular_target": "B2"}, "[2]": {"molecular_target": "B2", "remark": "listed apart in the source"}, "[3]": {"molecular_target": "B2", "remark": "listed apart in the source"}, "[4]": {"molecular_target": "B2", "remark": "listed apart in the source"}, "[5]": {"molecular_target": "B2", "remark": "listed apart in the source"}, "[6]": {"molecular_target": "B2", "remark": "listed apart in the source"}, "[7]": {"molecular_target": "B2", "remark": "listed apart in the source"}, "[8]": {"molecular_target": "B2", "remark": "listed apart in the source"}, "[9]": {"molecular_target": "B2", "remark": "listed apart in the source"}, "[10]": {"molecular_target": "B2", "remark": "listed apart in the source"}, "[11]": {"molecular_target": "B2", "remark": "listed apart in the source"}, "[12]": {"molecular_target": "B1"}, "[13]": {"molecular_target": "B1", "remark": "listed apart in the source"}, "[14]": {"molecular_target": "B1", "remark": "listed apart in the source"}, "[15]": {"molecular_target": "B1", "remark": "listed apart in the source"}, "[16]": {"molecular_target": "B1", "remark": "listed apart in the source"}, "[17]": {"molecular_target": "B1", "remark": "listed apart in the source"}, "[18]": {"molecular_target": "B1", "remark": "listed apart in the source"}, "[19]": {"molecular_target": "B1", "remark": "listed apart in the source"}, "[20]": {"molecular_target": "B1", "remark": "listed apart in the source"}}, "note": "Read-outs that look alike come from different tables or passages of the source.", "data": [{"binder": "B1", "values": [{"measurement": "dH", "setting": "[1]", "result": -15.8, "unit": "kcal/mol"}, {"measurement": "stoichiometry N", "setting": "[1]", "result": 1.03, "unit": "RPP29 per RPP21"}, {"measurement": "dH", "setting": "[2]", "result": -43, "unit": "kcal/mol"}, {"measurement": "dH", "setting": "[3]", "result": -5.19, "unit": "kcal/mol"}, {"measurement": "stoichiometry N", "setting": "[3]", "result": 0.986, "unit": "RPP29 per RPP21"}, {"measurement": "dH", "setting": "[4]", "result": -37.6, "unit": "kcal/mol"}, {"measurement": "dH", "setting": "[5]", "result": -10.2, "unit": "kcal/mol"}, {"measurement": "stoichiometry N", "setting": "[5]", "result": 0.998, "unit": "RPP29 per RPP21"}, {"measurement": "dH", "setting": "[6]", "result": -34.3, "unit": "kcal/mol"}, {"measurement": "dH", "setting": "[7]", "result": 11.6, "unit": "kcal/mol"}, {"measurement": "stoichiometry N", "setting": "[7]", "result": 1.01, "unit": "RPP29 per RPP21"}, {"measurement": "dH", "setting": "[8]", "result": -23.5, "unit": "kcal/mol"}, {"measurement": "stoichiometry N", "setting": "[8]", "result": 1, "unit": "RPP29 per RPP21"}, {"measurement": "dH", "setting": "[9]", "result": 17.1, "unit": "kcal/mol"}, {"measurement": "stoichiometry N", "setting": "[9]", "result": 0.956, "unit": "RPP29 per RPP21"}, {"measurement": "dH", "setting": "[10]", "result": -32, "unit": "kcal/mol"}, {"measurement": "stoichiometry N", "setting": "[10]", "result": 0.97, "unit": "RPP29 per RPP21"}, {"measurement": "dH", "setting": "[11]", "result": 5.95, "unit": "kcal/mol"}, {"measurement": "stoichiometry N", "setting": "[11]", "result": 0.9, "unit": "RPP29 per RPP21"}]}, {"binder": "B2", "values": [{"measurement": "Ka", "setting": "[12]", "result": "1.71e+07", "unit": "M⁻¹"}, {"measurement": "Ka", "setting": "[13]", "result": "3.32e+07", "unit": "M⁻¹"}, {"measurement": "Ka", "setting": "[14]", "result": "2.01e+07", "unit": "M⁻¹"}, {"measurement": "Ka", "setting": "[15]", "result": "1.09e+07", "unit": "M⁻¹"}, {"measurement": "Ka", "setting": "[16]", "result": "1.07e+07", "unit": "M⁻¹"}, {"measurement": "Ka", "setting": "[17]", "result": "9.17e+06", "unit": "M⁻¹"}, {"measurement": "Ka", "setting": "[18]", "result": "2.04e+06", "unit": "M⁻¹"}, {"measurement": "Ka", "setting": "[19]", "result": "9.55e+06", "unit": "M⁻¹"}]}, {"binder": "Pyrococcus furiosus RPP21/A14V (natural protein) MAKYNEKKEKKRIVKERIDILFSLAERVFPYSPELAKRYVELALLVQQKAKVKIPRKWKRRYCKKCHAFLVPGINARVRLRQKRMPHIVVKCLECGHIMRYPYIKEIKKRRKEKMEY", "values": [{"measurement": "binding result", "setting": "[20]", "result": "binds"}]}]}
